The results in this text go back to US20150197561A1 (ONCOMED PHARMACEUTICALS, published 2015).

Changes are numbered by the printed parent chain. Where two headings read alike, the source gives them in different places.

The target of assay [1] is T1, mouse Jagged1-His (extracellular domain of mouse Jagged1, aa 1-1060, with histidine tag) (mouse, UniProt Q9QXX0 34-1060).
T1 construct: made in insect cells; also called mJag1; Mouse Jagged 1 ECD His-tagged
Briefly: SPR, Biacore 2000; Jagged protein amine-coupled to CM5 chip, antibody injected 100-1.0 nM, global fit. The protocol:
(§1) The KDs of 64M51, 64R7 and 64R1B antibodies were determined using a Biacore 2000 system from Biacore Lifescience (GE Healthcare). Recombinant Jagged proteins human Jagged1-Fc (hJag1), mouse Jagged1-His (mJag1), human Jagged2-Fc (hJag2) and mouse Jagged2-Fc (mJag2) were immobilized on a CM5 chip using standard amine-based chemistry (NHS/EDC). Antibodies were serially diluted in 2-fold increments from 100 to 1.0 nM in HBS-P (0.01M HEPES pH7.4, 0.15M NaCl, 0.005% v/v Surfactant P20) and were injected over the chip surface. Kinetic data were collected over time and were fit using the simultaneous global fit equation to yield affinity constants (KD values) for each antibody (Table 3).
Background: Surface plasmon resonance follows binding to a sensor surface in real time, without labels.

Assay [2] deals with T2, human Jagged1-Fc (extracellular domain of human Jagged1 fused to human Fc) (human, UniProt P78504 34-1067).
T2 construct: also called hJag1; human Jagged1 ECD-Fc; not shown: human Fc
Described as above. The protocol: as §1

Assay [3] addresses T3, mouse Jagged2-Fc (extracellular domain of mouse Jagged2 fused to human Fc) (mouse, UniProt Q9QYE5 24-1082).
T3 construct: extracellular domain; also called mJag2; not shown: human Fc
Briefly: SPR, Biacore 2000; Jagged protein on CM5 chip, antibody injected. As for the experimental part: as §1

In assay [4] the target is T4, human Jagged2-Fc (extracellular domain of human Jagged2 fused to human Fc) (human, UniProt Q9Y219 27-1080).
T4 construct: also called hJag2; not shown: human Fc
The description is as above. As for the experimental part: as §1

Assay [5] has as its target T5, human Jagged2, full-length, expressed on transfected cells (human, UniProt Q9Y219 24-1238).
T5 construct: Full-length cDNA transfected into HEK293 cells (FACS) or PC3 cells (two cell population reporter assay); also called hJagged2; hJag2
Briefly: flow cytometry on transfected HEK293 cells. (In general: A flow cytometer gives signals particle by particle.)

Assay [6] deals with T6, mouse Jagged2 expressed on HEK293 cells (mouse, UniProt Q9QYE5 24-1247).
T6 construct: whole, on cells
Briefly: flow cytometry on transfected HEK293 cells.

The target of assay [7] is T3, mouse Jagged2-Fc (extracellular domain …). Briefly: SPR, Biacore 2000; Jagged protein amine-coupled to CM5 chip, antibody injected 100-1.0 nM, global fit. The protocol: as §1
Assay [8] addresses T4, human Jagged2-Fc (extracellular domain …). Described as above. As for the experimental part: as §1
The target in assay [9] is T2, human Jagged1-Fc (extracellular domain …). Briefly: phage display output screened by ELISA on recombinant human Jagged1 ECD-Fc; 64R7 named as one of the Fabs in paragraph 226. The protocol:
Phage display was used to identify specific Fabs that bind to the extracellular domain of human Jagged1. 2×10¹³ Fab displaying phage particles from a human Fab phage library were incubated with passively immobilized recombinant human Jagged1 ECD protein fused with a human Fc domain. The non-binding phage were washed off, phage bound to the Jagged1 protein were eluted with 100 mM glycine, […] pH2.2 and the elutant was neutralized with 1/10 volume of 2M Tris base. The eluted output phage were used to infect TG1 F+ bacteria and rescued with helper phage. The output of rescued round one served as the starting point for further selection rounds. The selections were continued to round 3, and then the output was screened in ELISA for Fabs specifically binding to recombinant human Jagged1 ECD-Fc protein. Several Fabs that specifically bound to human Jagged1 were identified.
In general terms: An ELISA detects its analyte on a solid surface through an enzyme-linked reagent.

Assay [10] shares this target. Briefly: SPR, Biacore 2000; Jagged protein amine-coupled to CM5 chip, antibody injected 100-1.0 nM, global fit; Example 13 run (Table 5), compared with 133R0201, 133R0203, 133R0205; separate experiment from Table 3. The protocol:
as §1, with “antibodies 133R0201, 133R0203” for “64M51, 64R7”, “133R0205” for “64R1B antibodies”, “Healthcare) and compared to K, of antibody 64R7. As described above in Example 4, recombinant” for “Healthcare). Recombinant”, “(K,” for “(KD”, “5).” for “3).”

Assay [11] addresses T1, mouse Jagged1-His (extracellular domain …). Briefly: SPR, Biacore 2000; Jagged protein amine-coupled to CM5 chip, antibody injected 100-1.0 nM, global fit. As for the experimental part: as §1, with “antibodies 133R0201, 133R0203” for “64M51, 64R7”, “133R0205” for “64R1B antibodies”, “Healthcare) and compared to K, of antibody 64R7. As described above in Example 4, recombinant” for “Healthcare). Recombinant”, “(K,” for “(KD”, “5).” for “3).”
This is another data set of the same source.

Assay [12] addresses T3, mouse Jagged2-Fc (extracellular domain …). The assay is described as above. The protocol: as §1, with “antibodies 133R0201, 133R0203” for “64M51, 64R7”, “133R0205” for “64R1B antibodies”, “Healthcare) and compared to K, of antibody 64R7. As described above in Example 4, recombinant” for “Healthcare). Recombinant”, “(K,” for “(KD”, “5).” for “3).”
This is another data set of the same source.

Assay [13] addresses T4, human Jagged2-Fc (extracellular domain …). The assay is described as above. As for the experimental part:
as §1, with “antibodies 133R0201, 133R0203” for “64M51, 64R7”, “133R0205” for “64R1B antibodies”, “Healthcare) and compared to K, of antibody 64R7. As described above in Example 4, recombinant” for “Healthcare). Recombinant”, “(K,” for “(KD”, “5).” for “3).”
This is another data set of the same source.

The target in assay [14] is T2, human Jagged1-Fc (extracellular domain …). The description is as above. The protocol:
as §1, with “antibodies 133R0201, 133R0203” for “64M51, 64R7”, “133R0205” for “64R1B antibodies”, “Healthcare) and compared to K, of antibody 64R7. As described above in Example 4, recombinant” for “Healthcare). Recombinant”, “(K,” for “(KD”, “5).” for “3).”
The source holds these as a separate data set.

T3 sequence (Q9QYE5 24-1082): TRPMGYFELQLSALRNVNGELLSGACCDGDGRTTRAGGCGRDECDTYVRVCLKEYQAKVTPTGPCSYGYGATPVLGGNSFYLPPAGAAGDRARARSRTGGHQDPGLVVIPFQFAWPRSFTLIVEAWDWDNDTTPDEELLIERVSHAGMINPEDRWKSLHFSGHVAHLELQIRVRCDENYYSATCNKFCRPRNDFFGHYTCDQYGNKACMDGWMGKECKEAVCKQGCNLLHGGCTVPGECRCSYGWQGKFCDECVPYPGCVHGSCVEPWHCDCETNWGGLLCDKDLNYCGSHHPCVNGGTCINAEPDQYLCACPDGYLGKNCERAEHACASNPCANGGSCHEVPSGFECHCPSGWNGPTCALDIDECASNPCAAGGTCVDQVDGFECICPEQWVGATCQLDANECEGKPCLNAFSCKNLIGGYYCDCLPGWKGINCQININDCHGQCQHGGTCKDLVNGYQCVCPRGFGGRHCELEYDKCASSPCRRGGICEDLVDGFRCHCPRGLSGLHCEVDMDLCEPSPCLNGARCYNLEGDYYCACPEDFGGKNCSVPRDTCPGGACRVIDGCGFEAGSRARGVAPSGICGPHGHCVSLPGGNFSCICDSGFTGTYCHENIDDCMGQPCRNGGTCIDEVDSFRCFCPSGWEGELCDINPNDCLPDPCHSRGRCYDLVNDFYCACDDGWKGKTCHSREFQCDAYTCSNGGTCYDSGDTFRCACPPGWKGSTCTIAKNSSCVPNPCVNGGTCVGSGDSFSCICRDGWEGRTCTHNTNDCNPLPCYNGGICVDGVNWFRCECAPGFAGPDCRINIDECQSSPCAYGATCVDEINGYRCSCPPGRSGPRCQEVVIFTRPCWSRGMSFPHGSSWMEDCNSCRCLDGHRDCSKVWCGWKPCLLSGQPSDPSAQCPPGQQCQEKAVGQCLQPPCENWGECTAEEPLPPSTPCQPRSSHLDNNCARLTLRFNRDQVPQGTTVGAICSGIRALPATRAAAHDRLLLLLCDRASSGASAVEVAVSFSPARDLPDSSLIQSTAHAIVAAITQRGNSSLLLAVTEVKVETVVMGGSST
T4 sequence (Q9Y219 27-1080 E501K): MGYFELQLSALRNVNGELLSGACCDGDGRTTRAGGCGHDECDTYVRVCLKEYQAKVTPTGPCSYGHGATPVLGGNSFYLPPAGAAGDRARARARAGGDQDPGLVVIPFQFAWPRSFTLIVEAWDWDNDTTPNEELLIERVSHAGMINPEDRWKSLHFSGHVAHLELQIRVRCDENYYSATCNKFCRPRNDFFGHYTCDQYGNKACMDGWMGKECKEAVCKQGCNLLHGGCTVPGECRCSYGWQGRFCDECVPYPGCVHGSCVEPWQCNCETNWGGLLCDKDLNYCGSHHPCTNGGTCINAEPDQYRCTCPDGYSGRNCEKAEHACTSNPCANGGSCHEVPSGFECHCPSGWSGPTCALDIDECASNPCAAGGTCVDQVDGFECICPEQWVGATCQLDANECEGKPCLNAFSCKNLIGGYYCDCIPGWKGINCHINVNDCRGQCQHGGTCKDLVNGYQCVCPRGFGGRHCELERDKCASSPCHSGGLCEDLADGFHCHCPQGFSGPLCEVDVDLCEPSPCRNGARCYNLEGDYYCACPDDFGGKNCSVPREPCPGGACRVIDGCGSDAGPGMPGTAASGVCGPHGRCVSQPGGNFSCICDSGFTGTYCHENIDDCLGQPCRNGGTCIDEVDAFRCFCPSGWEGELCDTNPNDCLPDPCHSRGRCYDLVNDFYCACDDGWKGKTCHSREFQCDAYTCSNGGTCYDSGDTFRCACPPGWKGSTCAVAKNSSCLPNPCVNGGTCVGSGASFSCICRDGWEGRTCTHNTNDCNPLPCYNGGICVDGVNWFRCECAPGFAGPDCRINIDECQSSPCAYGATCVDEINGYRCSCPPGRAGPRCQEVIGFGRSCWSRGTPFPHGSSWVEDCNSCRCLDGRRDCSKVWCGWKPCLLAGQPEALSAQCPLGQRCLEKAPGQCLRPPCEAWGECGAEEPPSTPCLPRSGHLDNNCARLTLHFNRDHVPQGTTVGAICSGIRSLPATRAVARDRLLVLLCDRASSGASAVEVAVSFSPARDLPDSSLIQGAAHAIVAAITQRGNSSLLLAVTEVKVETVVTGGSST
T5 sequence (Q9Y219 24-1238 E501K limits assumed): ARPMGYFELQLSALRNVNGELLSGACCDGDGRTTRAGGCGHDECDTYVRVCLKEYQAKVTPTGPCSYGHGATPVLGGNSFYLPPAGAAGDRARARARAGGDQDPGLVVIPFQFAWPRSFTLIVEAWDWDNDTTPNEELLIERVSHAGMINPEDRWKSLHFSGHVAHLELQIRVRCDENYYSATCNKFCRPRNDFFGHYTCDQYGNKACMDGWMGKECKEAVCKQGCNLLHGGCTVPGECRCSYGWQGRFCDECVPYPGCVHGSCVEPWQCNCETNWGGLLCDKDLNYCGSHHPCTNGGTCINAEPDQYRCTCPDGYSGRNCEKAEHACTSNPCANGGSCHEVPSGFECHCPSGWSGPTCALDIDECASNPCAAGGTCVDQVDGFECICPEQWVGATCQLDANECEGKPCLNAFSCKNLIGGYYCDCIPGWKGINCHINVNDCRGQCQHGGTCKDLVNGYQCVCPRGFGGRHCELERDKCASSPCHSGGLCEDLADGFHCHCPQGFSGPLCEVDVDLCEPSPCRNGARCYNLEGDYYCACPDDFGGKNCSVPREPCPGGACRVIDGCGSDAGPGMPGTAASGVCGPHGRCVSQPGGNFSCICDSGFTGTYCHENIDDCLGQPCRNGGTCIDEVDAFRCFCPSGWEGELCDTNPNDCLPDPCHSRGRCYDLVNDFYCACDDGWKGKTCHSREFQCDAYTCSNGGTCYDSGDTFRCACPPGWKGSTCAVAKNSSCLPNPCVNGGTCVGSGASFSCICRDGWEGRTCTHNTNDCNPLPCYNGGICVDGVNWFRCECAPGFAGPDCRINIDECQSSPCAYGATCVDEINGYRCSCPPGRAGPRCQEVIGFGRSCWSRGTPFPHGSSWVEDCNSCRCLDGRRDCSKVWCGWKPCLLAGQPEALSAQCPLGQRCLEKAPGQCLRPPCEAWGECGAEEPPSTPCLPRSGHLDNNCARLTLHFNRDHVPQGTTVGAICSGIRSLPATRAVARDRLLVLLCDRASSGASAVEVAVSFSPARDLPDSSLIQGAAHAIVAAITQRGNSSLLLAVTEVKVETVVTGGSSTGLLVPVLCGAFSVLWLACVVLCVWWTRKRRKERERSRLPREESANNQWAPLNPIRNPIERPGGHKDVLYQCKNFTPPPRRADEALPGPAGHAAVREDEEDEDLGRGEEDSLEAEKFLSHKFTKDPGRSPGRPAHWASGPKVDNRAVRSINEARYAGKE
T6 sequence (Q9QYE5 24-1247): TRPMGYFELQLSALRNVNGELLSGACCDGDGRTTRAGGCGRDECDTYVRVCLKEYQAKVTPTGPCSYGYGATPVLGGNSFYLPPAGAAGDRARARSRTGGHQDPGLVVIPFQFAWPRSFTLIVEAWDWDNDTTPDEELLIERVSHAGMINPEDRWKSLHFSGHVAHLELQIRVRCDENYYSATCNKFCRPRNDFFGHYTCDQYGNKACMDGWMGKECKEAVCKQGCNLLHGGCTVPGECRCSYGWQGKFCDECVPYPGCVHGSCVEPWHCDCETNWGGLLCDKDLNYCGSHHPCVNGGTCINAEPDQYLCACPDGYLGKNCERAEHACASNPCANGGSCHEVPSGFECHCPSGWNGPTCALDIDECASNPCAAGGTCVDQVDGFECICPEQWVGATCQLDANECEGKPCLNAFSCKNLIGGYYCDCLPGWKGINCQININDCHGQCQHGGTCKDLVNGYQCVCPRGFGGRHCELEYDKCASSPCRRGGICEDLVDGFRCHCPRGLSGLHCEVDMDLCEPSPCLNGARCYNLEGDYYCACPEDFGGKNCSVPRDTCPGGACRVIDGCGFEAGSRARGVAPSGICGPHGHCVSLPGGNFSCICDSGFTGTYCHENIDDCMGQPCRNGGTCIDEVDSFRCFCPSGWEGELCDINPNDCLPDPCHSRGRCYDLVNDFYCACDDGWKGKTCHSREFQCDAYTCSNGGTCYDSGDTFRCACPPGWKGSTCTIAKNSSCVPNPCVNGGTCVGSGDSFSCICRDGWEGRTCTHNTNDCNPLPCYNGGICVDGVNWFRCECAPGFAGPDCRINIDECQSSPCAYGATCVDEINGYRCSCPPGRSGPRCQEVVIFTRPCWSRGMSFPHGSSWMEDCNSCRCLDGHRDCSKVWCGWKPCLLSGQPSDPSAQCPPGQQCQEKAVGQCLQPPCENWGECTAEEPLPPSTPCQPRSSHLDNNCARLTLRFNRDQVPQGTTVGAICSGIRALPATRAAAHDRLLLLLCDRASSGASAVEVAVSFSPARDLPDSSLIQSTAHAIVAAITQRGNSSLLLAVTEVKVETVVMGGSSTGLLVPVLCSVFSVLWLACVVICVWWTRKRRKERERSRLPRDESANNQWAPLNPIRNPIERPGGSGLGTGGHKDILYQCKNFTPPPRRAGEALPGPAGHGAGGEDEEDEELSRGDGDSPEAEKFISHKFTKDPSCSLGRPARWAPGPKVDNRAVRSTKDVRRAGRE

B1: 64R1B IgG2 antibody (antibody, V domains shown)
VH: QVQLQESGPGLVKPSGTLSLTCTVSGDSISSSNWWSWVRQPPGQGLEWIGEIFHGENTNYNPSLKSRVTISVDKSKNQISLNLTSATAADTAVYYCARNPGIGAAKFDSWGQGTLVTVSS
VL: DIVMTQTPLSLSVTPGQPASISCKSSQSLLHSDGKTYLYWYLQKPGQPPQLLIYEVSNRFSGVPDRFSGSGSGTDFTLKISRVEAEDVGVYYCMQHIDFPFTFGQGTKLEIKR
notes: Human IgG2 / kappa, expressed in CHO cells; also called antibody 64R1B; ATCC PTA-10469
For B1, the Kd stood at 0.82 nM in [1] and 0.61 nM in assay [2]. The binding result in assay [3] is recorded as “no binding (tested: No binding detected at 100 nM)”; in assay [4], “no binding (tested: No binding detected at 100 nM)”; in assay [5] it was “no binding (tested: 10 µg/ml)”; in assay [6] it was “no binding (tested: 10 µg/ml)”.

B2: antibody 64M51 (antibody, mouse IgG1, kappa, V domains shown)
VH: QVQLKQSGAELVRPGTSVKLSCKTSGYIFTSYWIHWVKQRSGQGLEWIARIYPGIGSTYYNEKFKDKATLTADKSSSTAYMQLSSLKSEDSAVYFCAKNGGFFDYWGQGTTLTVSS
VL: DIVLTQSPASLAVSLGQRATISCRASESVDSYGNSFMHWYQQKPGQPPKLLIYRASNLESGIPARFSGSGSRTDFTLTINPVEADDVATYYCQQSNEDPWTFGGGTKLEIKR
notes: Mouse hybridoma monoclonal raised against mouse Jagged1 ECD-His; also called anti-Jagged 64M51; ATCC PTA-10468
With B2, the Kd in assay [1] is 33 nM; in assay [7] it was 7.9 nM; in assay [2], 30 nM; in [8], 6.2 nM.

B3: Fab 64R7 (Fab, V domains shown)
VH: QVQLVESGGGVVQPGRSLRLSCAASGFTFSSYAMHWVRQAPGKGLEWVAVISYDGSNKYYADSVKGRFTISRDNSKNTLYLQMNSLRAEDTAVYYCARDKYDIPDAFDIWGQGTLVTVSS
VL: DIRMTQSPSSLSASVGDRVTITCRASQGISNDLAWYQQKPGKVPRLLIYATSTLQSGVPSRFSGSGSATDFTLTISSLQPEDVATYYCQQSYNAPITFGQGTRLEIK
notes: Fab from a human Fab phage library; also called 64R7 Fab
As for B3, the binding result in [9] is “binds”.

B4: 64R7 IgG2 antibody (antibody, V domains shown)
VH: B3 VH
VL: DIRMTQSPSSLSASVGDRVTITCRASQGISNDLAWYQQKPGKVPRLLIYATSTLQSGVPSRFSGSGSATDFTLTISSLQPEDVATYYCQQSYNAPITFGQGTRLEIKR
notes: Human IgG2 / kappa, expressed in CHO cells; also called antibody 64R7; ATCC PTA-10470
With B4, the Kd in assay [1] stood at 10.5 nM; in assay [7], 20.6 nM; in assay [2], 5.9 nM; in assay [8], 8.3 nM; in assay [10], 1.7 nM; in assay [11], 4.8 nM. Further, the Kd stood at 9.6 nM in assay [12] and 10 nM in [13].

B5: antibody 133R0201 (antibody, V domains shown)
VH: QVQLVESGGGVVQPGRSLRLSCAASGFTFSSYAMHWVRQAPGKGLEWVAAIYPDSSNKYYADSVKGRFTISRDNSKNTLYLQMNSLRAEDTAVYYCARDKYDIPDAFDIWGQGTLVTVS
VL: B3 VL
Take B5: the Kd turned out to be 0.8 nM in assay [11], 3.2 nM in assay [12], 0.76 nM in assay [14] and 2.9 nM in assay [13].

B6: antibody 133R0203 (antibody, V domains shown)
VH: B5 VH with Y52S, D54E, S55A
VL: B3 VL
As for B6, the Kd in [11] was 1.6 nM; in [12], 3.8 nM; in assay [14], 1.4 nM; in assay [13], 3.7 nM.

B7: antibody 133R0205 (antibody, V domains shown)
VH: B5 VH with D54A
VL: B3 VL
Regarding B7, the dissociation constant (Kd) in assay [11] was 1.5 nM; in assay [12], 4.8 nM; in assay [14] it was 1.2 nM; in [13], 5.8 nM.

The term Kd denotes the concentration at which binding is half-saturated.
